Assay: yeast display, Sf9 membrane polyspecificity reagent, FACS + sequencing; frameworks hold sequencing errors
Summary of the method: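 A synthetic nanobody library was expressed on Saccharomyces cerevisiae BJ5465 by galactose induction for 36–48 hours. The library was stained for 1 hour at 4 °C with 10% biotinylated, detergent-solubilized Sf9 membrane reagent and enriched with streptavidin microbeads before FACS. Low and high (top ~1%) gates were set on anti-HA fluorescence for expression and streptavidin fluorescence for reagent binding, and each polyreactivity label reflects the gate of origin.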

| Sequence | polyreactivity (PSR sort gate) |
| --- | --- |
| QVQLVESGGGLVQAGGSLRLSCAASGSTLSDNAMGWYRQAPGKERELVARISGDGSTNYADSVKGRFTISRDNAKNTVYLQMNSLKPEDTAVYYCNAGTAGIYYYGKSDYWGQGTQVTVSS | low polyreactivity |
| QVQLVESGGGLVQAGGSLRLSCAASGSTLSFNAMGWYRQAPGKERELVAGITYSGASTYYADSVKGRFTISRDNAKNTVYLQMNSLKPEDTAVYYCAADSPYQIYYYWGQGTQVTVSS | low polyreactivity |
| QVQLVESGGGLVQAGGSLRLSCAASGSTLSKYAMGWYRQAPGKEREFVAAISRSGGSTYYADSVKGRFTISRDKAKNTVYLQMNSLKPEDTAVYYCAKVLRTFSGLYYWGQGTQVTVSS | high polyreactivity |
| QVQLVESGGGLVQAGGSLRLSCAASGSTLSKYAMGWYRQAPGKERELVATISIRGGNTYYADSVKGRFTFSRDNAKNTVYLQMNSLKPEDTAVYYCAARRVNAPPSYRQKAGYDYWGQGTQVTVSS | high polyreactivity |
| QVQLVESGGGLVQAGGSLRLSCAASGSTLSQYAMGLYRQAPGKERELVAAITKSGVRTYYPDSVKGRFTISRDNAKNTVYLQMNSLKREDTAVYYCAKATTKYIAPYDYWGQGTQVTVSS | high polyreactivity |
| QVQLVESGGGLVQAGGSLRLSCAASGSTLSRYVMGWYRRAAGKERELVAAISSSGGSTYYADSVKGRFTISRDNAKNTVYLQMNSLKPEDTADYYCNVDHWRRGRSDNYWGQGTQVTVSS | high polyreactivity |
| QVQLVESGGGLVQAGGSLRLSCAASGSTLSYYAMGWYRQAPGKEREWVAAISLSVGSTYYADSVKGRFTISRDNAKNTVYLQMNSLKPEETAVYYCAADDFYSGPFRGDYWGQGTQVTVSS | low polyreactivity |
| QVQLVESGGGLVQAGGSLRLSCAASGSTLTFNAMGWYRQAPWKERELVAAISWSDTDTYYADSVKGRFTISRDNAKNTVYLQINSLKPEDTAVYYCAATLSAYEMDYWGQGTQVTVSS | low polyreactivity |
| QVQLVESGGGLVQAGGSLRLSCAASGSTLTRNTMGWYRQAPGKERELVATITRSGGSTYYADSVKGRFTISRDNAKNTVYLQMNSLKPEDTAVYYCAKRGRLRNYDYWGQGTQVTVSS | high polyreactivity |
| QVQLVESGGGLVQAGGSLRLSCAASGSTLVGYAMGWYRQAPGKERELVAAISSSGTSTYYADSVKGRFSISRDNAKNTVYLQMNSLKPEDTAVYYCSARQRGTYGYWGQGTQVTVSS | high polyreactivity |
| QVQLVESGGGLVQAGGSLRLSCAASGSTLVTNAMGWYRQAPGKERELVAAITFSGGTTYYADSVKGLFTISRDNAKNTVYLQMNSLKPEDTAVYYCAAEIWLEYVGYDYWGQGTQVTLSS | high polyreactivity |
| QVQLVESGGGLVQAGGSLRLSCAASGSTLVTYAMGWYRQAPGKERELVARIDSGGSTNYADSVKGRFTISRDNAKNTVYLQMNSLKPEDTAVYYCSAGGGFYFIWTMDYWGQGTQVTVSS | low polyreactivity |
| QVQLVESGGGLVQAGGSLRLSCAASGSTLVVNGMGWYRQAPGKERELVASISSDGSTNYADSVKGRFTISRDNAKNTVYLQMNSLKPEDTAVYYCAADEGTGQASLSSNLYDYWGQGTQVTVSS | low polyreactivity |
| QVQLVESGGGLVQAGGSLRLSCAASGSTLVYYDMGWSRQAPGKERELVATITGTDSTYYADSVKGRFTISRDNAKNTVYLQMNSLKPEDTADCAADRAASRPDYDYWGQGTQVTVSS | low polyreactivity |
| QVQLVESGGGLVQAGGSLRLSCAASGSTLWANAMGWYRQAPGKERELVAAISWRGGRTYYADSVKGRFTISRDNAKNTVYLQMNSLKPEDTAVYYCNAVSYYRPRSDYGGQGTQVTVSS | high polyreactivity |
| QVQLVESGGGLVQAGGSLRLSCAASGSTLWFNAMGWYRQAPGKERELVAAISFSSGSTYYADSVKGRFTISRDNAKNTVYLQMNSLKPEDTAVYYCAARLRWWGYDYWGQGTQVTVSS | high polyreactivity |
| QVQLVESGGGLVQAGGSLRLSCAASGSTLWWYDMGWYRQAPGKERELVAAINSGGSTNYADSVKGRFTISRDNAKNTVYLQMNSLKPEDTAVYYCNTDGEVTYDYWGQGTQVTVSS | low polyreactivity |
| QVQLVESGGGLVQAGGSLRLSCAASGSTLYAYAMGWYRQAPGKERELVAAISRSGGSTYYAYSVKGRFTISRDNAKNTVYLQMNSLKPEDTAVYYCNAYYRYFRSIYDSWGQGTQVTVSS | high polyreactivity |
| QVQLVESGGGLVQAGGSLRLSCAASGSTLYFYAMGWYRQAPGKERELVASISGTGGRTDYADSVKGRFTISRDNAKNTVYLQMNSLKPEDTAVYYCAARGLVYQSNRYYGYRDYYYWGQGTQVTVSS | high polyreactivity |
| QVQLVESGGGLVQAGGSLRLSCAASGSTLYGNVMGWFRQAPGKERELVATINRGGSTNYADSVKGRFTISRDNAKNTVYLQMNSLKPEDTAVYYCAVYHYSSYEYLGQGTQVTVSS | low polyreactivity |
| QVQLVESGGGLVQAGGSLRLSCAASGSTLYGYAMGWYRQAPGKERELVAAISSSGTRTYYADSVKGRFTISRDNAKNSVYLQMNSLKPEDTAVYYCNAYYYIPFEGRGYSKMDYWGQGTQVTVSS | high polyreactivity |
| QVQLVESGGGLVQAGGSLRLSCAASGSTLYIYAKGWYRQAPGKETEFDADFSWSGGSTYYADSVKGRFTISRDYASNTVYLQMNSQKPEDTAVYNCNGDFTDSYLSRYDYWGQGTQVTVSS | low polyreactivity |

| Sequence | polyreactivity (PSR sort gate) |
| --- | --- |
| QVQLVESGGGLVQAGGSLRLSCAASGSTLYNYAMGWYRQAPGKERELVAAITKSGGRTYYADSVKGRFTISRDNAKNTVYLQMNSLKAEDTAVYYCAADRTQYARFDSWGQGTQVTVSS | high polyreactivity |
| QVQLVESGGGLVQAGGSLRLSCAASGSTLYPNPMGWYRQAPGTERELVAAISGTGGGTYYADSVKGRFTISRDNAKNTVYLQMNSLKPEDTAVYYCAADYVFAWWGDYYWGQGTQVTVSS | high polyreactivity |
| QVQLVESGGGLVQAGGSLRLSCAASGSTLYRNGMGWYRQAPGKEMEFVAAISWSGASTYYADSVKGRFTISRDNAKNTVYLQMNSLKPEDTAVYYCNARGPTVYETHNYWGQGTQVTVSS | low polyreactivity |
| QVQLVESGGGLVQAGGSLRLSCAASGSTLYVNAMGWYRQAPGKERELVAAISWSGGSTNYADSVKGRFTISRDNAKNTVYLQMNSLKPEDTAVYYCNVDSVVWDNAWYLYDYWGQGTQVTVSS | low polyreactivity |
| QVQLVESGGGLVQAGGSLRLSCAASGSTLYWNAMGWYRQAPGKERELVAGISIGGRTNYADSVKGRFTISRDNAKNTVYLQMNSLKPEDTAVYYCNAENTYLGSRYRPYNYWGQGTQVTVSS | low polyreactivity |
| QVQLVESGGGLVQAGGSLRLSCAASGSTLYWYAMGWYRQAPGKERELVAAITSGGNTYYADSVKGRFTISRDNAKNTVYLQMNSLKPEDTAVSYCAVGSFGVSAYSYYYWGQGTQVTVSS | low polyreactivity |
| QVQLVESGGGLVQAGGSLRLSCAASGSTLYYYAMGWYRQAPGKERELVAAISSGGRTYYADSVKGRFTISRDNAKNTVYLQMNSLKPEDTAVYYCNAVRYQKIFDYWGQGTQVTVSS | high polyreactivity |
| QVQLVESGGGLVQAGGSLRLSCAASGSTLYYYAMGWYRQAPGKERELVATITNGGSTNYADSVKGRFTISRDNAKNTVYLQMNSLKPEDTAVYYCNARRGYWGSHYWGQGTQVTVSS | high polyreactivity |
| QVQLVESGGGLVQAGGSLRLSCAASGSTLYYYVMGWYRQAPGKERELVAAISSSGDSTYYADSVKGRFTISRDNAKNTVYLQMTSLKPEDTAVYYCNAGWYFYGETTDDYWGQGTQVTVSS | low polyreactivity |
| QVQLVESGGGLVQAGGSLRLSCAASGSTMAPYAMGWYRQAPGTERELVASINWGGTTTYYADSVKGRFTISRDNAKNTVYLQMNSLKPEDTAVYYCAALGLRWGRSGYYYEYYYWGQGTQVTVSS | high polyreactivity |
| QVQLVESGGGLVQAGGSLRLSCAASGSTPDGYGMGWYRQAPGKERELVAVITIGGGRTYYADSVKGRFTISRDNAKNTVYLQMNSLKAVDTAVYYCAAKGWRRYYIGDYWGQGTQVTVSS | high polyreactivity |
| QVQLVESGGGLVQAGGSLRLSCAASGSTQVYYDMGWYRQAPAKERELVATITGTDSTYYADSVKGRFTISRDNAKNTVYLQMNSLKPEDTADCAADRAASRPDYDYWGEGTQVTVSS | low polyreactivity |
| QVQLVESGGGLVQAGGSLRLSCAASGSTRRYVMAWYRQAPGKEMELVAAISYSGGSTYYADSVKGRFTISRDNAKNTVYLQMNSLKPEETAVYYCAADGYSGQYGGHMGYWGQGTQVTVSS | high polyreactivity |
| QVQLVESGGGLVQAGGSLRLSCAASGSTRRYVMGWYRQAPWKERELVAAISYSGGSTYYADSVKGRFTISRDNAKNTVYLQMNSLKPEDTAVYYCAADGYSGQYGGHMGYWGQGTQVTVSS | high polyreactivity |
| QVQLVESGGGLVQAGGSLRLSCAASGSTSAAYAMGWYRQAPGKERELVAAISKRGGSTYYADSVKGRFTISRDNAKNTVYLQMNSLKPEDTAVYYCNKYHFPGYWSRFDYWGQGTQVTVSS | high polyreactivity |
| QVQLVESGGGLVQAGGSLRLSCAASGSTSARYAMGWYRQAPGKERELVATITRSGTTKYADSVKGRFTISRDNAKNTVYLQMNSLKPEDTAVYYCNSDTYFPLYDYWGQGTQVTVSS | low polyreactivity |
| QVQLVESGGGLVQAGGSLRLSCAASGSTSAYYAMGWYRQAPGKERELVAAISWSGGLTYYADSVKGRFTISRDNAKNTVYLQMNSLKPEDTAVYYCAASSYPYGYDYWGQGTQVTVSS | high polyreactivity |
| QVQLVESGGGLVQAGGSLRLSCAASGSTSDSYAMGWYRQAPGKERELVAAISRGTNTYYADSVKGRFTISRDNAKNTVYLQLNRLKPEDTAVYYCNKVQYLRKYWVTPTGQRFGYWGQGTQVTVSS | high polyreactivity |
| QVQLVESGGGLVQAGGSLRLSCAASGSTSDVYAMGWYRQAPGKEREFVAAIRFSGGSTYYADSVKGRFTISRDNAKNTVYLQMNSLKPEDTAVYYCAKRWGIWPRGYYWGQGTQVTVSS | low polyreactivity |
| QVQLVESGGGLVQAGGSLRLSCAASGSTSETYAMGWYRQAPGKERELVAAISGNGASTYYADSVKGRFTISRDNAKNTVYLQMNSLKPDDTAVYYCAAYFYYWGSTFVRYEYWGQGTQVTVSS | high polyreactivity |
| QVQLVESGGGLVQAGGSLRLSCAASGSTSGKNAMGWYRQAPGKERELVAVITYSGSRTYYADSVKGRFTISRDNAKNTVYLQMNSLIPEDTAVYYCAAVGGGVSFRGNYWGQGTQVTVSS | high polyreactivity |
